{"source": "paper PMC2636851", "key": {"Mcm10-ID wild type [1]": {"target": "T1, Mcm10-ID wild type (Xenopus laevis, UniProt Q5EAW4 230-427)", "T1 sequence": "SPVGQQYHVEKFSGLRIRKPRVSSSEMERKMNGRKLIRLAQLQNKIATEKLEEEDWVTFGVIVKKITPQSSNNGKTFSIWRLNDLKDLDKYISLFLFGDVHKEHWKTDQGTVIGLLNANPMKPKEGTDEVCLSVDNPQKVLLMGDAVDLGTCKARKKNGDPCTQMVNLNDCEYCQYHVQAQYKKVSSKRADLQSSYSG", "experiment": "NMR"}, "Mcm10-ID F326A": {"target": "T2, Mcm10-ID F326A (Xenopus laevis, UniProt Q5EAW4 230-427, F326A)", "T2 sequence": "T1 sequence with F97A", "experiment": "fluorescence anisotropy"}, "Mcm10-ID K412E/K413E": {"target": "T3, Mcm10-ID K412E/K413E (Xenopus laevis, UniProt Q5EAW4 230-427, K412E;K413E)", "T3 sequence": "T1 sequence with K183E, K184E", "experiment": "fluorescence anisotropy"}, "Mcm10-ID K417E/R418E": {"target": "T4, Mcm10-ID K417E/R418E (Xenopus laevis, UniProt Q5EAW4 230-427, K417E;R418E)", "T4 sequence": "T1 sequence with K188E, R189E", "experiment": "fluorescence anisotropy"}, "Mcm10-ID K293A": {"target": "T5, Mcm10-ID K293A (Xenopus laevis, UniProt Q5EAW4 230-427, K293A)", "T5 sequence": "T1 sequence with K64A", "experiment": "fluorescence anisotropy"}, "Mcm10-ID K385E/K386E": {"target": "T6, Mcm10-ID K385E/K386E (Xenopus laevis, UniProt Q5EAW4 230-427, K385E;K386E)", "T6 sequence": "T1 sequence with K156E, K157E", "experiment": "fluorescence anisotropy"}, "Mcm10-ID wild type [2]": {"target": "T1, Mcm10-ID wild type", "experiment": "fluorescence anisotropy"}}, "note": "Numbering of substitutions follows the chain as printed.", "data": [{"binder": "GGCGCATTGTCGCAA (ssDNA)", "note": "[15mer ssDNA (NMR)]", "values": [{"measurement": "binding result", "setting": "Mcm10-ID wild type [1]", "result": "binds"}]}, {"binder": "ATGGTAGGCAACCATGTAGTAGTCA (ssDNA)", "note": "[25mer ssDNA]", "values": [{"measurement": "binding result", "setting": "Mcm10-ID F326A", "result": "binds"}, {"measurement": "binding result", "setting": "Mcm10-ID K412E/K413E", "result": "binds"}, {"measurement": "binding result", "setting": "Mcm10-ID K417E/R418E", "result": "binds"}, {"measurement": "binding signal", "setting": "Mcm10-ID K293A", "result": "5 fold reduction in affinity vs wild type"}, {"measurement": "binding signal", "setting": "Mcm10-ID K385E/K386E", "result": "10 fold reduction in affinity vs wild type"}]}, {"binder": "ATGGTAGGCA (ssDNA)", "note": "[10mer from 5' end of 25mer]", "values": [{"measurement": "binding result", "setting": "Mcm10-ID wild type [2]", "result": "binds"}]}]}
